Test results taken from the supplement of paper PMC10567573.

B1: ESR2 (parent)
chain: KSCQACRLRKCYEVGMVKCGSRRE
B2: FAM189A2 (parent)
chain: PRCDLVDLGEGKICFCCEEFQPAK

Variants of: B1
Assay: protein stability index of a GFP-peptide fusion (GPS, HEK-293T) (PSI 1-6); higher = more stable
Conditions: c terminus: a fixed tail appended
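Note: lentivirally expressed fusions sorted by FACS into six bins by GFP to DsRed ratio, PSI derived from sequencing read proportions per bin multiplied by bin number.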

Variant | protein stability index
KSCQCCRLRKCYEVGMVKCGSRRE | 2.08
KSCQHCRLRKCYEVGMVKCGSRRE | 2.15
KSCQECRLRKCYEVGMVKCGSRRE | 2.39
KSCQGCRLRKCYEVGMVKCGSRRE | 1.84
KSCQICRLRKCYEVGMVKCGSRRE | 2.34
KSCQDCRLRKCYEVGMVKCGSRRE | 2.09
KSCQKCRLRKCYEVGMVKCGSRRE | 2.48
KSCQMCRLRKCYEVGMVKCGSRRE | 1.36
KSCQRCRLRKCYEVGMVKCGSRRE | 3.08
KSCQFCRLRKCYEVGMVKCGSRRE | 1.55
KSCQWCRLRKCYEVGMVKCGSRRE | 1.77
KSCQTCRLRKCYEVGMVKCGSRRE | 2.11
KSCQQCRLRKCYEVGMVKCGSRRE | 2.11
KSCQVCRLRKCYEVGMVKCGSRRE | 1.93
KSCQYCRLRKCYEVGMVKCGSRRE | 1.64
KSCQNCRLRKCYEVGMVKCGSRRE | 1.81
KSCQSCRLRKCYEVGMVKCGSRRE | 2
KSCQPCRLRKCYEVGMVKCGSRRE | 2.3
KSCQLCRLRKCYEVGMVKCGSRRE | 2.29
KSCQAKRLRKCYEVGMVKCGSRRE | 3.22
KSCQANRLRKCYEVGMVKCGSRRE | 2.94
KSCQAIRLRKCYEVGMVKCGSRRE | 2.6
KSCQAMRLRKCYEVGMVKCGSRRE | 2.44

Variant | protein stability index
KSCQAYRLRKCYEVGMVKCGSRRE | 2.28
KSCQALRLRKCYEVGMVKCGSRRE | 2.48
KSCQAWRLRKCYEVGMVKCGSRRE | 2
KSCQADRLRKCYEVGMVKCGSRRE | 2.73
KSCQAQRLRKCYEVGMVKCGSRRE | 2.94
KSCQAPRLRKCYEVGMVKCGSRRE | 3.03
KSCQAGRLRKCYEVGMVKCGSRRE | 2.88
KSCQATRLRKCYEVGMVKCGSRRE | 2.62
KSCQAHRLRKCYEVGMVKCGSRRE | 2.81
KSCQAFRLRKCYEVGMVKCGSRRE | 1.96
KSCQASRLRKCYEVGMVKCGSRRE | 2.25
KSCQAARLRKCYEVGMVKCGSRRE | 2.57
KSCQAERLRKCYEVGMVKCGSRRE | 2.38
KSCQAVRLRKCYEVGMVKCGSRRE | 2.42
KSCQARRLRKCYEVGMVKCGSRRE | 3.05
DSCQACRLRKCYEVGMVKCGSRRE | 1.75
ASCQACRLRKCYEVGMVKCGSRRE | 2.89
ISCQACRLRKCYEVGMVKCGSRRE | 2.78
NSCQACRLRKCYEVGMVKCGSRRE | 1.59
WSCQACRLRKCYEVGMVKCGSRRE | 1.65
HSCQACRLRKCYEVGMVKCGSRRE | 2.5
SSCQACRLRKCYEVGMVKCGSRRE | 3.19
MSCQACRLRKCYEVGMVKCGSRRE | 1.87

Variant | protein stability index
YSCQACRLRKCYEVGMVKCGSRRE | 1.45
CSCQACRLRKCYEVGMVKCGSRRE | 2.56
QSCQACRLRKCYEVGMVKCGSRRE | 2.42
VSCQACRLRKCYEVGMVKCGSRRE | 2.31
LSCQACRLRKCYEVGMVKCGSRRE | 1.95
FSCQACRLRKCYEVGMVKCGSRRE | 2.31
RSCQACRLRKCYEVGMVKCGSRRE | 2.22
PSCQACRLRKCYEVGMVKCGSRRE | 2.35
TSCQACRLRKCYEVGMVKCGSRRE | 2.1
GSCQACRLRKCYEVGMVKCGSRRE | 2.71
ESCQACRLRKCYEVGMVKCGSRRE | 1.72
KSCQACRARKCYEVGMVKCGSRRE | 2.17
KSCKACRLRKCYEVGMVKCGSRRE | 1.84
KSCIACRLRKCYEVGMVKCGSRRE | 1.88
KSCGACRLRKCYEVGMVKCGSRRE | 1.58
KSCPACRLRKCYEVGMVKCGSRRE | 1.68
KSCWACRLRKCYEVGMVKCGSRRE | 1.39
KSCSACRLRKCYEVGMVKCGSRRE | 2.11
KSCTACRLRKCYEVGMVKCGSRRE | 2.17
KSCCACRLRKCYEVGMVKCGSRRE | 1.72
KSCVACRLRKCYEVGMVKCGSRRE | 2.04
KSCHACRLRKCYEVGMVKCGSRRE | 1.83
KSCEACRLRKCYEVGMVKCGSRRE | 2.1

Variant | protein stability index
KSCAACRLRKCYEVGMVKCGSRRE | 1.55
KSCDACRLRKCYEVGMVKCGSRRE | 1.81
KSCYACRLRKCYEVGMVKCGSRRE | 1.9
KSCLACRLRKCYEVGMVKCGSRRE | 2.15
KSCMACRLRKCYEVGMVKCGSRRE | 2.18
KSCRACRLRKCYEVGMVKCGSRRE | 2.15
KSCFACRLRKCYEVGMVKCGSRRE | 1.32
KSCNACRLRKCYEVGMVKCGSRRE | 1.86
KSCQACNLRKCYEVGMVKCGSRRE | 1.77
KSCQACVLRKCYEVGMVKCGSRRE | 1.89
KSCQACPLRKCYEVGMVKCGSRRE | 2.17
KSCQACFLRKCYEVGMVKCGSRRE | 2.29
KSCQACQLRKCYEVGMVKCGSRRE | 1.66
KSCQACHLRKCYEVGMVKCGSRRE | 1.81
KSCQACSLRKCYEVGMVKCGSRRE | 1.89
KSCQACILRKCYEVGMVKCGSRRE | 1.64
KSCQACDLRKCYEVGMVKCGSRRE | 2.06
KSCQACELRKCYEVGMVKCGSRRE | 2.69
KSCQACGLRKCYEVGMVKCGSRRE | 2
KSCQACLLRKCYEVGMVKCGSRRE | 1.74
KSCQACWLRKCYEVGMVKCGSRRE | 1.89
KSCQACMLRKCYEVGMVKCGSRRE | 1.48
KSCQACCLRKCYEVGMVKCGSRRE | 2.5

Variant | protein stability index
KSCQACKLRKCYEVGMVKCGSRRE | 2.03
KSCQACTLRKCYEVGMVKCGSRRE | 2.46
KSCQACYLRKCYEVGMVKCGSRRE | 2.58
KSCQACALRKCYEVGMVKCGSRRE | 1.32
KSGQACRLRKCYEVGMVKCGSRRE | 2.97
KSVQACRLRKCYEVGMVKCGSRRE | 2.54
KSMQACRLRKCYEVGMVKCGSRRE | 2.48
KSDQACRLRKCYEVGMVKCGSRRE | 2.69
KSSQACRLRKCYEVGMVKCGSRRE | 3.24
KSHQACRLRKCYEVGMVKCGSRRE | 2.65
KSFQACRLRKCYEVGMVKCGSRRE | 2.2
KSIQACRLRKCYEVGMVKCGSRRE | 2.39
KSEQACRLRKCYEVGMVKCGSRRE | 3.21
KSWQACRLRKCYEVGMVKCGSRRE | 1.85
KSNQACRLRKCYEVGMVKCGSRRE | 2.71
KSLQACRLRKCYEVGMVKCGSRRE | 2.57
KSPQACRLRKCYEVGMVKCGSRRE | 2.92
KSQQACRLRKCYEVGMVKCGSRRE | 2.94
KSKQACRLRKCYEVGMVKCGSRRE | 2.59
KSYQACRLRKCYEVGMVKCGSRRE | 2.19
KSTQACRLRKCYEVGMVKCGSRRE | 2.57
KSAQACRLRKCYEVGMVKCGSRRE | 2.66
KPCQACRLRKCYEVGMVKCGSRRE | 1.86

Variant | protein stability index
KTCQACRLRKCYEVGMVKCGSRRE | 1.92
KNCQACRLRKCYEVGMVKCGSRRE | 1.98
KHCQACRLRKCYEVGMVKCGSRRE | 2.23
KECQACRLRKCYEVGMVKCGSRRE | 1.96
KYCQACRLRKCYEVGMVKCGSRRE | 2.94
KWCQACRLRKCYEVGMVKCGSRRE | 1.91
KGCQACRLRKCYEVGMVKCGSRRE | 1.96
KRCQACRLRKCYEVGMVKCGSRRE | 2.43
KICQACRLRKCYEVGMVKCGSRRE | 1.46
KACQACRLRKCYEVGMVKCGSRRE | 1.6
KQCQACRLRKCYEVGMVKCGSRRE | 1.96
KDCQACRLRKCYEVGMVKCGSRRE | 1.98
KCCQACRLRKCYEVGMVKCGSRRE | 1.54
KLCQACRLRKCYEVGMVKCGSRRE | 1.56
KFCQACRLRKCYEVGMVKCGSRRE | 1.45
KMCQACRLRKCYEVGMVKCGSRRE | 1.78
KVCQACRLRKCYEVGMVKCGSRRE | 1.92
KKCQACRLRKCYEVGMVKCGSRRE | 2.02

Variants of: B2
Assay: as above
Conditions: c terminus: a fixed tail appended

Variant | protein stability index
PRCDLVDLGEGKICFCCEEFQMAK | 3.07
PRCDLVDLGEGKICFCCEEFQGAK | 3.86
PRCDLVDLGEGKICFCCEEFQQAK | 3.51
PRCDLVDLGEGKICFCCEEFQKAK | 3.42
PRCDLVDLGEGKICFCCEEFQLAK | 2.74
PRCDLVDLGEGKICFCCEEFQEAK | 3.49
PRCDLVDLGEGKICFCCEEFQWAK | 3.08
PRCDLVDLGEGKICFCCEEFQVAK | 2.69
PRCDLVDLGEGKICFCCEEFQRAK | 2.51
PRCDLVDLGEGKICFCCEEFQFAK | 3.12
PRCDLVDLGEGKICFCCEEFQIAK | 2.75
PRCDLVDLGEGKICFCCEEFQCAK | 3.51
PRCDLVDLGEGKICFCCEEFQHAK | 3.13
PRCDLVDLGEGKICFCCEEFQDAK | 4.31
PRCDLVDLGEGKICFCCEEFQTAK | 3.23
PRCDLVDLGEGKICFCCEEFQNAK | 3.28
PRCDLVDLGEGKICFCCEEFQYAK | 3.06
PRCDLVDLGEGKICFCCEEFQPWK | 3.56
PRCDLVDLGEGKICFCCEEFQPDK | 3.12
PRCDLVDLGEGKICFCCEEFQPFK | 2.85
PRCDLVDLGEGKICFCCEEFQPEK | 4.35
PRCDLVDLGEGKICFCCEEFQPQK | 3.5
PRCDLVDLGEGKICFCCEEFQPLK | 3.1
PRCDLVDLGEGKICFCCEEFQPNK | 3.15
PRCDLVDLGEGKICFCCEEFQPHK | 3.07
PRCDLVDLGEGKICFCCEEFQPRK | 2.24
PRCDLVDLGEGKICFCCEEFQPIK | 2.65
PRCDLVDLGEGKICFCCEEFQPKK | 3.36

Variant | protein stability index
PRCDLVDLGEGKICFCCEEFQPGK | 2.72
PRCDLVDLGEGKICFCCEEFQPPK | 2.44
PRCDLVDLGEGKICFCCEEFQPCK | 3.98
PRCDLVDLGEGKICFCCEEFQPSK | 2.66
PRCDLVDLGEGKICFCCEEFQPYK | 2.28
PRCDLVDLGEGKICFCCEEFQPVK | 3.29
PRCDLVDLGEGKICFCCEEFQPTK | 2.79
PRCDLVDLGEGKICFCCEEFQPMK | 1.96
PRCDLVDLGEGKICFCCEEFQPAT | 3
PRCDLVDLGEGKICFCCEEFQPAE | 3.81
PRCDLVDLGEGKICFCCEEFQPAR | 2.89
PRCDLVDLGEGKICFCCEEFQPAN | 3.37
PRCDLVDLGEGKICFCCEEFQPAV | 3.06
PRCDLVDLGEGKICFCCEEFQPAW | 1.99
PRCDLVDLGEGKICFCCEEFQPAC | 3.39
PRCDLVDLGEGKICFCCEEFQPAP | 3.05
PRCDLVDLGEGKICFCCEEFQPAQ | 2.25
PRCDLVDLGEGKICFCCEEFQPAH | 2.52
PRCDLVDLGEGKICFCCEEFQPAL | 3.26
PRCDLVDLGEGKICFCCEEFQPAI | 2.48
PRCDLVDLGEGKICFCCEEFQPAA | 2.66
PRCDLVDLGEGKICFCCEEFQPAM | 2.32
PRCDLVDLGEGKICFCCEEFQPAD | 3.18
PRCDLVDLGEGKICFCCEEFQPAF | 2.23
PRCDLVDLGEGKICFCCEEFQPAY | 2.52
PRCDLVDLGEGKICFCCEEFQPAS | 2.72
PRCDLVDLGEGKICFCCEEFQPAG | 3.1
